Test results: the supplement of paper PMC10126150
± gives the standard deviation of the averaged measurements.
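Also: ATP exposure 15 min at 22 °C before imaging.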

The sequences below were run on ATP (assay: switch fluorescence ratio, 500 uM ATP over buffer (Cy3 cluster intensity, sum of 5 cycles each) (fold (ratio)); higher = stronger signal-on switching upon ATP binding; sequences stand for … in TCGTCGGCAGCGTCAGATGTGTATAAGAGACAGTTTTTTTTTTTTTTTTTTTTTTTTT…TC). Conditions: aptamer strand: ATP DNA aptamer (quencher-CACCTGGGGGAGTATTGCGGAGGAAGG + anchor), 100 nM annealed; ATP concentration: 500 uM.
Method in brief: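 Values give the fluorescence ratio for each switch-domain sequence, averaged from per-cluster ratios of summed target-cycle to summed buffer-cycle Cy3 intensity. The Cy3-labelled switching-strand clusters sat on a modified Illumina MiSeq flow-cell, were annealed to 100 nM quencher-labelled ATP aptamer, and were imaged in selection buffer, then after 15 min with 500 uM ATP at 22 °C. Five cycles ran with NaOH stripping and re-annealing between them, and clusters outside 100-1000 RFU were excluded.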
Work on GTGTGCGCGT yielded a switch fluorescence ratio of 0.983 ± 0.025. TTAGTGGGGA gave a switch fluorescence ratio of 1.01 ± 0.039. GGGAATCTGC was tested, and the switch fluorescence ratio was 1.01 ± 0.026. GTGTCCTTAT showed a switch fluorescence ratio of 0.998 ± 0.074. For TCCAATGTAA, the switch fluorescence ratio was 1.06 ± 0.041. GCATCAGGGA showed a switch fluorescence ratio of 1.02 ± 0.035. With AAGGCGTACT the switch fluorescence ratio was 1.03 ± 0.026. AGCTATTCCG gave a switch fluorescence ratio of 1.01 ± 0.013. With GCCCCCAGCG the switch fluorescence ratio was 4.61 ± 0.65. AACGGGGTGT showed a switch fluorescence ratio of 1.062 ± 0.0093. CGGGGCTGGC was tested, and the switch fluorescence ratio was 1.2 ± 0.13. For TTTTTGAAAT, the switch fluorescence ratio was 1.35 ± 0.6. AGGGCAATGG was tested, and the switch fluorescence ratio was 1.29 ± 0.38. GTGTTGCCGA gave a switch fluorescence ratio of 1 ± 0.079. In the case of CCAGTAGACT, the switch fluorescence ratio is reported as 1.06 ± 0.035. GTAACCAATT was tested, and the switch fluorescence ratio was 1.01 ± 0.021. CCATGTGTG gave a switch fluorescence ratio of 1.02 ± 0.024. Sequence TCTTTATATG has a switch fluorescence ratio of 0.9989 ± 0.0033. ATGGGCTTCG gave a switch fluorescence ratio of 1.01 ± 0.034. In the case of TCCGGGGTTG, the switch fluorescence ratio is reported as 0.988 ± 0.046. CTAGGTTAAA showed a switch fluorescence ratio of 0.988 ± 0.023. TCAATAGATG gave a switch fluorescence ratio of 0.998 ± 0.032. GGGGGAGGCA gave a switch fluorescence ratio of 0.966 ± 0.032. GTGGGGGCGC showed a switch fluorescence ratio of 1.04 ± 0.022. In the case of TCTGTCCAGC, the switch fluorescence ratio is reported as 0.9775 ± 0.0046. CGTTTCTGGG showed a switch fluorescence ratio of 1.007 ± 0.0015. CTGGTCATGT showed a switch fluorescence ratio of 0.995 ± 0.05. With GCCCTGGGTC the switch fluorescence ratio was 1.02 ± 0.06. Work on CGAGATTTGT yielded a switch fluorescence ratio of 1.011 ± 0.0097. With GGGTTAGTGG the switch fluorescence ratio was 0.976 ± 0.032. Work on TGTTTCATTT yielded a switch fluorescence ratio of 0.989 ± 0.016. With GTCGTTAGGA the switch fluorescence ratio was 1.01 ± 0.0038. In the case of ATCGTTGGCT, the switch fluorescence ratio is reported as 1.04 ± 0.07. For AGGGGTAAGA, the switch fluorescence ratio was 1.01 ± 0.032. With GCATTTGGTT the switch fluorescence ratio was 1.01 ± 0.012. For TAAATTTTCT, the switch fluorescence ratio was 1.06 ± 0.015. With GCGGAACGGT the switch fluorescence ratio was 1.03 ± 0.034. For GTCATTGCGG, the switch fluorescence ratio was 0.994 ± 0.015. For ATAATATTTG, the switch fluorescence ratio was 0.985 ± 0.015. AGTTTTGTTA was tested, and the switch fluorescence ratio was 1.02 ± 0.019. GTGTTGTACG was tested, and the switch fluorescence ratio was 0.999 ± 0.015. For GGGGCAGGGA, the switch fluorescence ratio was 0.98 ± 0.052. With TTTCAAGGGA the switch fluorescence ratio was 0.9904 ± 0.0048. With GCCTATAGTC the switch fluorescence ratio was 0.991 ± 0.03. TTCGAAGGAA gave a switch fluorescence ratio of 1.1 ± 0.028. For GAACTGAGTC, the switch fluorescence ratio was 1.01 ± 0.046. With GCTAAACGTG the switch fluorescence ratio was 0.959 ± 0.014. GGTATTAGGA showed a switch fluorescence ratio of 0.9669 ± 0.0076. CGTGTGTTTT showed a switch fluorescence ratio of 1 ± 0.0068. TATTGCCTGT showed a switch fluorescence ratio of 0.974 ± 0.019. For GGGTGCGGAG, the switch fluorescence ratio was 0.956 ± 0.035. TAATGCGATG was tested, and the switch fluorescence ratio was 0.9852 ± 0.005. For TGGGACCCTT, the switch fluorescence ratio was 1.06 ± 0.023. Sequence TTCCCGGGGA has a switch fluorescence ratio of 1.24 ± 0.4. AGATTGTGGT showed a switch fluorescence ratio of 0.99 ± 0.018. For ACGTTGCGTT, the switch fluorescence ratio was 1.02 ± 0.025. Sequence TTAAGACGTC has a switch fluorescence ratio of 1.01 ± 0.0011. Work on CGGGTATTCT yielded a switch fluorescence ratio of 0.974 ± 0.046. GAGGCAGAAA was tested, and the switch fluorescence ratio was 1.09 ± 0.044. AATTGGCTTA gave a switch fluorescence ratio of 0.997 ± 0.027. With GCTGTAGTTT the switch fluorescence ratio was 0.973 ± 0.015. For AGCGAGAGAC, the switch fluorescence ratio was 1.102 ± 0.0025. Sequence GGGGGTATGG has a switch fluorescence ratio of 0.983 ± 0.032. GTTTGGGCTT showed a switch fluorescence ratio of 1.05 ± 0.063. Work on GATAAAGTAA yielded a switch fluorescence ratio of 0.983 ± 0.015. Work on ACCTGTATTT yielded a switch fluorescence ratio of 1 ± 0.02. CCGCATTGGT gave a switch fluorescence ratio of 4.77 ± 0.66. Sequence CAAATACTTG has a switch fluorescence ratio of 1.04 ± 0.019. In the case of TATTAGTTGG, the switch fluorescence ratio is reported as 0.971 ± 0.023. GGGCTAATAA showed a switch fluorescence ratio of 1.02 ± 0.039. For GGTAAAAGTC, the switch fluorescence ratio was 1.01 ± 0.012. ATAAAGGTCG showed a switch fluorescence ratio of 1.06 ± 0.1. In the case of TCTTGACTAG, the switch fluorescence ratio is reported as 1.06 ± 0.053. With GGGTTACTGT the switch fluorescence ratio was 0.985 ± 0.012. Work on GGTTGCATCA yielded a switch fluorescence ratio of 0.994 ± 0.032. For AATTAGACGA, the switch fluorescence ratio was 0.958 ± 0.034. In the case of AAGTATGGGG, the switch fluorescence ratio is reported as 0.978 ± 0.021. With CAGTTGGGAC the switch fluorescence ratio was 1 ± 0.054. With ATAACTTTTT the switch fluorescence ratio was 0.992 ± 0.054. Sequence TACTATGTTG has a switch fluorescence ratio of 1.02 ± 0.065. CAGTGTCTGC gave a switch fluorescence ratio of 0.9726 ± 0.0016. GGGACCGTGT was tested, and the switch fluorescence ratio was 1.01 ± 0.028. For GATAGGGATG, the switch fluorescence ratio was 1.001 ± 0.0062. GGGGTTCCGG was tested, and the switch fluorescence ratio was 0.941 ± 0.032. TTGGACGTGT was tested, and the switch fluorescence ratio was 0.946 ± 0.027. CTCGTAGGGG gave a switch fluorescence ratio of 1.01 ± 0.039. GAAGGGCCTG gave a switch fluorescence ratio of 1.05 ± 0.056. With TAATGAGTTT the switch fluorescence ratio was 1.006 ± 0.0016. GTCTTATTTA showed a switch fluorescence ratio of 0.976 ± 0.014. Sequence GTAGTAATTG has a switch fluorescence ratio of 1.075 ± 0.0065. Work on TAGGAGGTGG yielded a switch fluorescence ratio of 1.03 ± 0.041. Sequence GGTTAATGGA has a switch fluorescence ratio of 0.9833 ± 0.0035. Sequence CCAGGCGCGG has a switch fluorescence ratio of 1.05 ± 0.055. ATTGAATGTG gave a switch fluorescence ratio of 0.973 ± 0.013. Sequence CCGTCGGGGT has a switch fluorescence ratio of 1.09 ± 0.025. Sequence TCGAGCCCCA has a switch fluorescence ratio of 1.04 ± 0.087. For GTCGACAGGT, the switch fluorescence ratio was 0.987 ± 0.031. For AGGCAGTTTC, the switch fluorescence ratio was 0.988 ± 0.049. Work on CGGATTTGAC yielded a switch fluorescence ratio of 1.015 ± 0.0028. With GGGACCGAAC the switch fluorescence ratio was 1.13 ± 0.029.
